# Measured values from paper PMC10001486, “Artificial Intelligence-Based Computational Screening and Functional Assays Identify Candidate Small Molecule Antagonists of PTPmu-Dependent Adhesion” (International Journal of Molecular Sciences, 2023).
# Biological target: the molecule itself
# Test: bead aggregation assay; streptavidin MonoMag beads (1 micron) coated with biotin-tagged PTPµ21-365avi; PBS + 0.01% Tween 20; room temperature; rotation at 150 rpm for 30 min; aggregates over 50 µm^2 counted by microscopy
protein,measurement,value
"PTPµ21-365avi (fragment of PTPµ containing the MAM, Ig, and first FNIII repeat) (domain or fragment, human, UniProt P28827 21-365, looked up, biotin (biotin-tagged), PTPµ, aa 21-365: MAM domain, Ig domain and first FNIII repeat; held on streptavidin beads by the biotin on the avi tag; the species is stated only for the full-length protein and by the UniProt entry; also called extracellular fragment of PTPmu; source: bacterially expressed) ETFSGGCLFDEPYSTCGYSQSEGDDFNWEQVNTLTKPTSDPWMPSGSFMLVNASGRPEGQRAHLLLPQLKENDTHCIDFHYFVSSKSNSPPGLLNVYVKVNNGPLGNPIWNISGDPTRTWNRAELAISTFWPNFYQVIFEVITSGHQGYLAIDEVKVLGHPCTRTPHFLRIQNVEVNAGQFATFQCSAIGRTVAGDRLWLQGIDVRDAPLKEIKVTSSRRFIASFNVVNTTKRDAGKYRCMIRTEGGVGISNYAELVVKEPPVPIAPPQLASVGATYLWIQLNANSINGDGPIVAREVEYCTASGSWNDRQPVDSTSYKIGHLDPDTEYEISVLLTRPGEGGTGS",binding result,binds
